The series deals with the molecule itself. Description: SEC; size-exclusion chromatography of EcoMinCNTD in a broad range of protein concentrations.

B1: Escherichia coli MinC N-terminal domain (EcoMinCNTD), residues 1-105 (domain or fragment, UniProt P18196 1-105, looked up)
chain: MSNTPIELKGSSFTLSVVHLHEAEPKVIHQALEDKIAQAPAFLKHAPVVLNVSALEDPVNWSAMHKAVSATGLRVIGVSGCKDAQLKAEIEKMGLPILTEGKEKA
notes: MinC (septum site-determining protein), Escherichia coli, N-terminal domain, residues 1-105; amplified from E. coli genomic DNA (ATCC No. 700926D-5); Cloned into a modified pET-28a vector (BamHI/XhoI); The printed molecular weight is 11863 Da; also called unfused-EcoMinCNTD; source: E. coli BL21 (DE3), purified (Ni-NTA, TEV cleavage, size-exclusion chromatography)
B1: the “stoichiometry N” value is 2.
